Reference: publication PMC7192382

System: MtKNOX3 homeodomain (Medicago truncatula)
Test: SPR
Settings: SPR: PBS (150 mM NaCl, 2 mM Na2HPO4)/Tween pH 7.4, BSA 670 ug/ml, protein 0-10 uM, temperature not stated; EMSA: LightShift binding buffer (stock as printed …)

Substance | Kd [nM]
IPT3-1 (MtIPT3 promoter site) | 2220
LOG1 (MtLOG1 first intron site) | 555
LOG2-1 (MtLOG2 promoter site) | 28000
